# Laboratory results from patent publication US11278600B2, “Human alpha-galactosidase variants” (Codexis, Inc., priority 2014, dated 2022).
# Substitutions are numbered along the chain they refer to.
# B1: 330 (protein)
# chain: LDNGLARTPTMGWLHWERFMCNLDCQEEPDSCISEKLFMEMAERMVSEGWKDAGYEYLCIDDCWMAPQRDSEGRLQADPQRFPHGIRQLANYVHSKGLKLGIYADVGNKTCAGFPGSFGYYDIDAQTFADWGVDLLKFDGCYCDSLENLADGYKHMSLALNRTGRSIVYSCEWPLYMWPFQKPNYTEIRQYCNHWRNFADIDDSWASVKSILDWTSFNQEKIVDVAGPGGWNDPDMLVIGNFGLSWNQQVTQMALWAIMAAPLFMSNDLRHISPQAKALLQDKDVIAINQDPLGKQGYQLRQGDNFEVWERPLSGLAWAVAIINRQEIGGPRSYTIAVASLGDGVACNPACFITQLLPVKRKLGFYNWTSRLKSHINPTGTVLLQLENTMQMSLKDLL
# modifications: Synthetic Polypeptide sequence of Variant No. 330 of mature Human GLA
# B2: 342 (protein)
# chain: B1 chain with K96I, V208I, F217R, K221R, N247D, Q302K, L316D, A337P, D343K
# modifications: Synthetic Polypeptide sequence of Variant No. 342 of mature Human GLA
# B3: 339 (protein)
# chain: B1 chain with K96I, V208I, F217R, K221R, N247D, D343K, A350G, K362Q
# modifications: Synthetic Polypeptide sequence of Variant No. 339 of mature Human GLA
# B4: 335 (protein)
# chain: B1 chain with V208I, K221R, N247D, L316D, D343G, A350G, K362Q, T369S
# modifications: Synthetic Polypeptide sequence of Variant No. 335 of mature Human GLA
# B5: 336 (protein)
# chain: B1 chain with V208I, K221R, N247D, Q302K, D343K, A350G, T369S
# modifications: Synthetic Polypeptide sequence of Variant No. 336 of mature Human GLA
# B6: 338 (protein)
# chain: B1 chain with K96I, V208I, F217R, K221R, N247D, D343K, A350G, K362Q
# modifications: Synthetic Polypeptide sequence of Variant No. 338 of mature Human GLA
# B7: 340 (protein)
# chain: B1 chain with K96I, V208I, F217R, K221R, N247D, D343K, A350G, K362Q, T369S
# modifications: Synthetic Polypeptide sequence of Variant No. 340 of mature Human GLA
# B8: 337 (protein)
# chain: B1 chain with V208I, K221R, N247D, Q302K
# modifications: Synthetic Polypeptide sequence of Variant No. 337 of mature Human GLA
# B9: 333 (protein)
# chain: B1 chain with V208I, K221R, L316D, A337P, D343K, A350G, T369S
# modifications: Synthetic Polypeptide sequence of Variant No. 333 of mature Human GLA
# B10: 341 (protein)
# chain: B1 chain with K96I, V208I, F217R, K221R, N247D, D343K, T369S
# modifications: Synthetic Polypeptide sequence of Variant No. 341 of mature Human GLA
# B11: 332 (protein)
# chain: B1 chain with K221T, Q302K, D343G, F365L, I376V
# modifications: Synthetic Polypeptide sequence of Variant No. 332 of mature Human GLA
# B12: 334 (protein)
# chain: B1 chain with V208I, K221R, N247D, L316D, D343K, A350G, K362Q, T369S
# modifications: Synthetic Polypeptide sequence of Variant No. 334 of mature Human GLA
# B13: 331 (protein)
# chain: B1 chain with N247D, I376V
# modifications: Synthetic Polypeptide sequence of Variant No. 331 of mature Human GLA
# Assay: HTP-analysis of supernatants pretreated with acid (MUGal hydrolysis)
# Type: biochemical
# Conditions: challenge at pH 4.0; activity of the variant/activity of Rd3BB (SEQ ID NO: 13); yeast culture supernatant
# Summary of the method: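 MUGal hydrolysis was tracked by fluorescence (Ex 355 nm, Em 448 nm) after a 30-180 min reaction at 37° C. in pH 4.8 McIlvaine/citrate buffer, stopped with 1 M sodium carbonate. Beforehand, yeast (INVSc1) culture supernatants carrying GLA variants were held 1-3 h at 37° C. in acidic McIlvaine buffer, pH 3.3-4.3.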
row,Molecule,Relative Activity of GLA Variants After Challenge at pH 4.0
1,B1,++ (++ = >1.5 to 2.5 relative activity over Rd3BB (SEQ ID NO: 13))
2,B2,+++ (+++ = >2.5 relative activity over Rd3BB (SEQ ID NO: 13))
3,B3,+ (+ = 0.5 to 1.5 relative activity over Rd3BB (SEQ ID NO: 13))
4,B4,+++ (+++ = >2.5 relative activity over Rd3BB (SEQ ID NO: 13))
5,B5,+ (+ = 0.5 to 1.5 relative activity over Rd3BB (SEQ ID NO: 13))
6,B6,+++ (+++ = >2.5 relative activity over Rd3BB (SEQ ID NO: 13))
7,B7,+ (+ = 0.5 to 1.5 relative activity over Rd3BB (SEQ ID NO: 13))
8,B8,++ (++ = >1.5 to 2.5 relative activity over Rd3BB (SEQ ID NO: 13))
9,B9,++ (++ = >1.5 to 2.5 relative activity over Rd3BB (SEQ ID NO: 13))
10,B10,+ (+ = 0.5 to 1.5 relative activity over Rd3BB (SEQ ID NO: 13))
11,B11,+ (+ = 0.5 to 1.5 relative activity over Rd3BB (SEQ ID NO: 13))
12,B12,++ (++ = >1.5 to 2.5 relative activity over Rd3BB (SEQ ID NO: 13))
13,B13,++ (++ = >1.5 to 2.5 relative activity over Rd3BB (SEQ ID NO: 13))

# Assay: HTP-analysis of supernatants pretreated with bovine serum (MUGal hydrolysis)
# Type: biochemical
# Conditions: activity of the variant/activity of Rd3BB (SEQ ID NO: 13), yeast culture supernatant
# Summary of the method: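 Yeast INVSc1 culture supernatants containing secreted GLA variants were mixed with bovine serum (20:80) and held 1 h at 37° C. Serum-treated samples then reacted with MUGal (4 mM stock) in citrate/McIlvaine buffer (pH 4.3/4.8) for 180 min at 37° C., were quenched with sodium carbonate, and read by fluorescence (Ex 355, Em 448 nm).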
row,Molecule,Relative Activity of GLA Variants After Challenge with Serum
1,B1,+ (+ = 0.5 to 1.5 relative activity over Rd3BB (SEQ ID NO: 13))
2,B2,+++ (+++ = >2.5 relative activity over Rd3BB (SEQ ID NO: 13))
3,B3,+ (+ = 0.5 to 1.5 relative activity over Rd3BB (SEQ ID NO: 13))
4,B4,+++ (+++ = >2.5 relative activity over Rd3BB (SEQ ID NO: 13))
5,B5,− (− = <0.5 relative activity to Rd3BB (SEQ ID NO: 13))
6,B6,+++ (+++ = >2.5 relative activity over Rd3BB (SEQ ID NO: 13))
7,B7,+ (+ = 0.5 to 1.5 relative activity over Rd3BB (SEQ ID NO: 13))
8,B8,++ (++ = >1.5 to 2.5 relative activity over Rd3BB (SEQ ID NO: 13))
9,B9,+ (+ = 0.5 to 1.5 relative activity over Rd3BB (SEQ ID NO: 13))
10,B10,+ (+ = 0.5 to 1.5 relative activity over Rd3BB (SEQ ID NO: 13))
11,B11,+ (+ = 0.5 to 1.5 relative activity over Rd3BB (SEQ ID NO: 13))
12,B12,++ (++ = >1.5 to 2.5 relative activity over Rd3BB (SEQ ID NO: 13))
13,B13,+ (+ = 0.5 to 1.5 relative activity over Rd3BB (SEQ ID NO: 13))

# Assay: HTP-analysis of yeast culture supernatants, no challenge (MUGal hydrolysis)
# Type: biochemical
# Conditions: activity of the variant/activity of Rd3BB (SEQ ID NO: 13), yeast culture supernatant
# Summary of the method: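 Activity read as 4-methylumbelliferyl α-D-galactopyranoside hydrolysis: fluorescence (355/448 nm) after sodium carbonate stop, following 30-180 min at 37° C with 2 mM MUGal stock at pH 4.6–4.8. Enzyme source is unchallenged culture supernatant of INVSc1 yeast expressing GLA variants, grown 66-84 h at 30° C.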
row,Molecule,Relative Activity of GLA Variants After No Challenge (NC)
1,B1,++ (++ = >1.5 to 2.5 relative activity over Rd3BB (SEQ ID NO: 13))
2,B2,++ (++ = >1.5 to 2.5 relative activity over Rd3BB (SEQ ID NO: 13))
3,B3,+ (+ = 0.5 to 1.5 relative activity over Rd3BB (SEQ ID NO: 13))
4,B4,++ (++ = >1.5 to 2.5 relative activity over Rd3BB (SEQ ID NO: 13))
5,B5,+ (+ = 0.5 to 1.5 relative activity over Rd3BB (SEQ ID NO: 13))
6,B6,++ (++ = >1.5 to 2.5 relative activity over Rd3BB (SEQ ID NO: 13))
7,B7,+ (+ = 0.5 to 1.5 relative activity over Rd3BB (SEQ ID NO: 13))
8,B8,+ (+ = 0.5 to 1.5 relative activity over Rd3BB (SEQ ID NO: 13))
9,B9,++ (++ = >1.5 to 2.5 relative activity over Rd3BB (SEQ ID NO: 13))
10,B10,− (− = <0.5 relative activity to Rd3BB (SEQ ID NO: 13))
11,B11,+ (+ = 0.5 to 1.5 relative activity over Rd3BB (SEQ ID NO: 13))
12,B12,+ (+ = 0.5 to 1.5 relative activity over Rd3BB (SEQ ID NO: 13))
13,B13,+ (+ = 0.5 to 1.5 relative activity over Rd3BB (SEQ ID NO: 13))

# Assay: HTP-analysis of supernatants pretreated with base (MUGal hydrolysis)
# Type: biochemical
# Conditions: challenge at pH 8.2; activity of the variant/activity of Rd3BB (SEQ ID NO: 13); yeast culture supernatant
# Summary of the method: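 Supernatants from INVSc1 yeast expressing GLA variants (SD-Ura, 66-84 h, 30° C) were mixed with McIlvaine buffer pH 7.0-8.2 or 200 mM sodium bicarbonate pH 9.1-9.7 and held 1-18 h at 37° C. Residual activity was then measured on MUGal at pH 4.8/4.3, 37° C, 30-180 min, by fluorescence (Ex 355/Em 448 nm).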
row,Molecule,Relative Activity of GLA Variants After Challenge at pH 8.2
1,B1,+ (+ = 0.5 to 1.5 relative activity over Rd3BB (SEQ ID NO: 13))
2,B2,+++ (+++ = >2.5 relative activity over Rd3BB (SEQ ID NO: 13))
3,B3,++ (++ = >1.5 to 2.5 relative activity over Rd3BB (SEQ ID NO: 13))
4,B4,+++ (+++ = >2.5 relative activity over Rd3BB (SEQ ID NO: 13))
5,B5,+ (+ = 0.5 to 1.5 relative activity over Rd3BB (SEQ ID NO: 13))
6,B6,+++ (+++ = >2.5 relative activity over Rd3BB (SEQ ID NO: 13))
7,B7,+ (+ = 0.5 to 1.5 relative activity over Rd3BB (SEQ ID NO: 13))
8,B8,++ (++ = >1.5 to 2.5 relative activity over Rd3BB (SEQ ID NO: 13))
9,B9,++ (++ = >1.5 to 2.5 relative activity over Rd3BB (SEQ ID NO: 13))
10,B10,+ (+ = 0.5 to 1.5 relative activity over Rd3BB (SEQ ID NO: 13))
11,B11,+ (+ = 0.5 to 1.5 relative activity over Rd3BB (SEQ ID NO: 13))
12,B12,+++ (+++ = >2.5 relative activity over Rd3BB (SEQ ID NO: 13))
13,B13,++ (++ = >1.5 to 2.5 relative activity over Rd3BB (SEQ ID NO: 13))
